Residue numbers refer to the chain shown, from its start.

First the molecules themselves.
B1: α-SNAP-25 monoclonal antibody 1D3B8 (antibody, V domains shown)
VH: QVKLQESGAELVKPGASVKISCKASGYIFTDHALHWVRQKPEQGLEWIGYIFPGNGNIEYNEKFKGKATLTADKSSSTAYMQLNSLTSGDSAMYFCKKMDYWGQGTTVTVSS
VL: DVLMTQTPLSLPVSLGDQASISCRSSQSIVHSNGNTYLEWYLQKPGQSPKLLIYKVSNRFSGVPDRFSGSGSGTDFTLKISRVEAEDLGVYYCFQGSHVPPTFGAGTKLELKR
B2: α-SNAP-25 monoclonal antibody 2E2A6 (antibody, V domains shown)
VH: QVQLQQSDAELVKPGASVKISCRASGYTFTDHSIHWVKQQPGQGLEWIGYIFPGNGNIEYNDKFKGKATLTADKSSGTAYMQLNSLTSEDSAVYFCKRMGYWGQGTSVTVSS
VL: DVLMTQTPLTLSVTIGQPASISCKSSQSLLYTNGKTYLTWLFQRPGQSPKRLIYLVSELDSGVPDRFSGSGSGTDFTLEITRVEAEDLGVYYCLQSAHFPFTFGSGTKLEIKR
B3: α-SNAP-25 monoclonal antibody 3C1A5 (antibody, V domains shown)
VH: QVKLQESGAELVKPGASVKISCKASGYTFTDHSIHWVKQKPGQGLEWIGYLFPGNGNFEYNEKFKGKATLTADKSSSTVYMYLNSLTSEDSAVYFCKRMGYWGQGTTVTVSS
VL: B2 VL with L3V, Y31N, F42I, K50Q, E58K, E79K, T81S, A97S

T1 sequence (P60881 whole entry): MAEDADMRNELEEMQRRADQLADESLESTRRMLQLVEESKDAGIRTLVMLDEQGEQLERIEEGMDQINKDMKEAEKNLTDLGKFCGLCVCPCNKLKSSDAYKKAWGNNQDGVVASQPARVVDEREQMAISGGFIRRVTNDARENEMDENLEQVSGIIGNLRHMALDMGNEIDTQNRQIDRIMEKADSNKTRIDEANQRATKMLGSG

This experiment has as its target T1, SNAP-25206 uncleaved substrate (PC12 cells) (rat (PC12 cells), UniProt P60881 1-206).
T1 construct: also called uncleaved SNAP-25206 substrate; uncleaved SNAP-25
The experiment in a line: cell-based activity assay (Western blot, PC12 cells), ascites 1:100. Background: In western blotting, separated proteins are transferred to a membrane and probed.
Consider B1, for which the binding result is reported as “no binding”.

In the case of B2, the binding result is recorded as “no binding”.

As to B3, the binding result is reported as “no binding”.

These data come from patent US20100203559A1 (published 2010).
